According to patent publication US20030118557A1, “Axon repair” (priority 2001, published 2003):

B1: GAP-43: growth-associated growth cone protein; chicken GAP-43 transgene expressed in mouse neurons under Thy-1 promoter (protein, UniProt P35001 1-246, looked up)
Neuromodulin: MLCCMRRTKQVEKNEDGDQKIEQDGIKPEDKAHKAATKIQASFRGHITRKKLKGEKKADAPASESEAADKKDEGPAGGAAENKESEASAATEASAADSAQLDEGSKDSSVPAEEKKGNGAADTGSEQPAPQAATPAASSEEKPAAAAETESATKASTDNSPSLKADEAQDKEEPKQADVPAADTTATTTPAAEDATAKATAQPQMETVESSQTEEKTDAVEETKPTESAQQEEVKEEESKADQENA
modifications: transgene in mouse neurons
notes: growth-associated growth cone protein; chicken GAP-43 transgene expressed in mouse neurons under Thy-1 promoter
B2: CAP-23: growth cone protein; chicken CAP-23 transgene expressed in mouse neurons under Thy-1 promoter (protein, UniProt P23614 2-244, looked up)
Brain acid soluble protein 1 …: GGKLSKKKKGYSVNDEKAKDKDKKAEGAATEEEETPKEAEDAQQTTETTEVKENNKEEKVEKDAQVSANKTEEKEGEKEKTVTQEEAQKAEPEKSEAVVDAKVEPQKNNEQAPKQEEPAAASAPAASSEAPKTSEPSSDAKASQPSEATAPSKADDKSKEEGEAKKTEAPATPAAQETKSEVAPASDSKPSSSEAAPSSKETVAATAAPSSTAKASDPSAPPEEAKPSEAPATNSDQTIAVQD
modifications: transgene in mouse neurons
notes: growth cone protein; chicken CAP-23 transgene expressed in mouse neurons under Thy-1 promoter

Test system: dorsal root ganglion (DRG) neurons
Assay: short-term in vitro axon outgrowth assay with adult DRG neurons from transgenic mice
Type: cell-based
Conditions: for propensity / number of adult DRG neurons that extended axons: acute outgrowth assay, naive neurons; for extension of long (>300 μm) axons: naive adult DRG neurons from transgenic mice, short-term culture
Procedure: For the in vitro analysis, dorsal root ganglion (DRG) neurons from adult mice (>8 weeks) were dissociated essentially as described (Smith et al, J. Neurosci. 17:646-658 (1997)), and centrifuged at 200×g for 10 minutes through a cushion of 10% Ficoll in F14 culture medium to remove myelinated axons, cellular debris and non-neuronal cells. Neurons were resuspended in serum-free F14 medium containing N1 supplements, and plated on polylysine/laminin coated glass coverslips as described (Smith et al, J. Neurosci. 17:646-658 (1997)). Cells from 12-14 ganglia were plated in 12 wells of a standard 24-well plate. After 18-24 hours, cultures were fixed in 4% paraformaldehyde for 30 minutes at room temperature, washed and stained with antibodies to detect neurons expressing chicken CAP-23 (monoclonal antibody 15C1) and chicken GAP-43 (rabbit polyclonal antibody) (Caroni et al, J. Cell Biol. 136:679-692 (1997), Aigner et al, Cell 83:269-278 (1995)). To visualize all neuronal processes, cultures were stained with antibodies to β III tubulin (MAB 1637; Chemicon, Temecula, Calif.). Cells were viewed with a CCD camera and analyzed with IPLab 3.2 for the Macintosh (Scanalytics, Inc., Fairfax, Va.). Only neurons that stained strongly for the appropriate transgene(s) were analyzed. In control cultures, cells that stained strongly for the neuron-specific β III tubulin were analyzed. Cells with processes greater than 2 cell body diameters were scored. The length of the longest process for each cell, and the number of branches formed along that process, were then measured.
To identify genes responsible for the onset of axon regeneration, a short-term in vitro assay was used that monitors a transcription-dependent switch in axon extension induced in DRG neurons by axon injury (Smith et al, J. Neurosci. 17:646-658 (1997)). Neurons are removed from adult animals and cultured for 18-24 hours (Smith et al, J. Neurosci. 17:646-658 (1997)). Because the neurons are axotomized during this removal, they will eventually respond by inducing the full complement of growth-associated genes (Smith et al, J. Neurosci. 17:646-658 (1997)). Over the first 24 hours in culture, however, axon outgrowth depends only on genes that were already expressed in the neurons at the time of their removal from the animal (Smith et al, J. Neurosci. 17:646-658 (1997)). Neurons isolated from adult mice with no prior manipulation (naive neurons) supported a limited amount of outgrowth (Smith et al, J. Neurosci. 17:646-658 (1997)) and FIG. 1), characterized by the emergence of relatively short and highly branched axons (FIGS. 2 and 3). In contrast, neurons that had responded to a peripheral nerve lesion several days before removal were much more likely to extend axons (FIG. 1), and those axons were long and sparsely branched (FIGS. 2 and 3). This “elongating” growth resembles the extension required for nerve regeneration in vivo, and reflects the expression of genes induced by peripheral nerve injury (Smith et al, J. Neurosci. 17:646-658 (1997)).

Molecule	propensity / number of adult DRG neurons that extended axons	extension of long (>300 μm) axons	modal length of axons (naive adult DRG neurons, persistent transgene expression, 18-24 hours in culture)
B1	increased the propensity	Only a small fraction	100-150 μm
B2	increased the number	did not elicit extension of long axons	–
